Here are results for one substance from IntAct's records for PubMed 29892012.

Among the targets are reep6_human REEP6 (UniProt Q96HR9); zmat1_human ZMAT1 (UniProt Q5H9K5); ar6p1_human ARL6IP1 (UniProt Q15041); drc12_human DRC12 (UniProt Q494R4); txlna_human TXLNA (UniProt P40222).
The next experiment has as its target T1, ei2ba_human EIF2B1 (UniProt Q14232).
T1 sequence: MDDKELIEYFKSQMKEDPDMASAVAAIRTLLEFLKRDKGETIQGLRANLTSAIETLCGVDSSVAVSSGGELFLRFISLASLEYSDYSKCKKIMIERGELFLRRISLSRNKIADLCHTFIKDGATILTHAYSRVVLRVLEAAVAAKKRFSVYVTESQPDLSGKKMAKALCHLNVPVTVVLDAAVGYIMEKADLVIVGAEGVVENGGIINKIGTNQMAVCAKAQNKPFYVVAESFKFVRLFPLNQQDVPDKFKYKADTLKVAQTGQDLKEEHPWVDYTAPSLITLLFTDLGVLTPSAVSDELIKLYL

In a further experiment the target is T2, dctd_human DCTD (UniProt P32321).
T2 sequence: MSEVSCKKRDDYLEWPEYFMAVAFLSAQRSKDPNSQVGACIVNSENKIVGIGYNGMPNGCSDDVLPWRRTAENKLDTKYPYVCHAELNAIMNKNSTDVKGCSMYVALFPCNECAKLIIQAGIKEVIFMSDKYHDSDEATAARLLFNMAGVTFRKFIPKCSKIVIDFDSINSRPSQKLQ

The target of a further experiment is T3, acy3_human ACY3 (UniProt Q96HD9).
T3 sequence: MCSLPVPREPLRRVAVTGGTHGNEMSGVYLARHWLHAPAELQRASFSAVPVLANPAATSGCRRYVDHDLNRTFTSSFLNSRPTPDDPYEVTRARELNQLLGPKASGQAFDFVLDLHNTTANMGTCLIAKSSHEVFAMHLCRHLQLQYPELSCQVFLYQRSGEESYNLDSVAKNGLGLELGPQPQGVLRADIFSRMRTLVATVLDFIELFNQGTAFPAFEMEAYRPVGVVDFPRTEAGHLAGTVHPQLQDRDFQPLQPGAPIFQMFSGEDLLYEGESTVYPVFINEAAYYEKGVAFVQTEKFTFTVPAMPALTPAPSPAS

In the next experiment the target is T4, tle5_human TLE5 (UniProt Q08117).
T4 sequence: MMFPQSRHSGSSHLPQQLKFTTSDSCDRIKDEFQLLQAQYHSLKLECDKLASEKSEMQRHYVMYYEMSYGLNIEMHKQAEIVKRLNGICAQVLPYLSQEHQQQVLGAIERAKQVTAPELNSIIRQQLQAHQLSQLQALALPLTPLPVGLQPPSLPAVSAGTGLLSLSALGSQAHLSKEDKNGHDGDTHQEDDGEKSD

Another experiment concerns the target T5, dcor_human ODC1 (UniProt P11926).
T5 sequence: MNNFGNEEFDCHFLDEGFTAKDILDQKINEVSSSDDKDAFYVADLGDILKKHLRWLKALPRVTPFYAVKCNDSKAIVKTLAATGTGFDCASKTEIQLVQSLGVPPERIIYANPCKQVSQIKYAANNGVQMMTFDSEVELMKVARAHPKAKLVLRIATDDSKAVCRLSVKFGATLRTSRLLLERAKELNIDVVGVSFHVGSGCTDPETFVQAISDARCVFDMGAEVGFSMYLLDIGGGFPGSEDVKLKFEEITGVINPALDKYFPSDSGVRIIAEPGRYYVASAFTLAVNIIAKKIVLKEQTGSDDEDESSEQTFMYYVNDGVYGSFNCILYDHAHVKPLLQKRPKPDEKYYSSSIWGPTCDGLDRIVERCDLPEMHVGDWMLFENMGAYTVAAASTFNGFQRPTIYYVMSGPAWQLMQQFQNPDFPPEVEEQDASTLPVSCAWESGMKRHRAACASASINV

For another experiment, the target named is T6, phs_human PCBD1 (UniProt P61457).
T6 sequence: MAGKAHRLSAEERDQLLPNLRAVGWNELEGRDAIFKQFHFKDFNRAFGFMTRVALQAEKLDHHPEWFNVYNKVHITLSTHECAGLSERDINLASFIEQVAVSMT

For the next experiment, the target named is T7, prps1_human PRPS1 (UniProt P60891).
T7 sequence: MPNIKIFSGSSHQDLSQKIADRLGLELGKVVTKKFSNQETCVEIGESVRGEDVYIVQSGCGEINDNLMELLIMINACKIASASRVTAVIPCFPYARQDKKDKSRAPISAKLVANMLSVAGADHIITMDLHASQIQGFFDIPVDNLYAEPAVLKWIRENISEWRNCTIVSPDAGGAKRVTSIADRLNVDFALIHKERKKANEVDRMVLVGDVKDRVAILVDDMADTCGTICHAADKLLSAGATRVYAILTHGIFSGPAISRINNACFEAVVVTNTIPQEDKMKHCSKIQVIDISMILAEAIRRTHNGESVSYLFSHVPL

In a further experiment the target is T8, ca094_human C1orf94 (UniProt Q6P1W5).
T8 sequence: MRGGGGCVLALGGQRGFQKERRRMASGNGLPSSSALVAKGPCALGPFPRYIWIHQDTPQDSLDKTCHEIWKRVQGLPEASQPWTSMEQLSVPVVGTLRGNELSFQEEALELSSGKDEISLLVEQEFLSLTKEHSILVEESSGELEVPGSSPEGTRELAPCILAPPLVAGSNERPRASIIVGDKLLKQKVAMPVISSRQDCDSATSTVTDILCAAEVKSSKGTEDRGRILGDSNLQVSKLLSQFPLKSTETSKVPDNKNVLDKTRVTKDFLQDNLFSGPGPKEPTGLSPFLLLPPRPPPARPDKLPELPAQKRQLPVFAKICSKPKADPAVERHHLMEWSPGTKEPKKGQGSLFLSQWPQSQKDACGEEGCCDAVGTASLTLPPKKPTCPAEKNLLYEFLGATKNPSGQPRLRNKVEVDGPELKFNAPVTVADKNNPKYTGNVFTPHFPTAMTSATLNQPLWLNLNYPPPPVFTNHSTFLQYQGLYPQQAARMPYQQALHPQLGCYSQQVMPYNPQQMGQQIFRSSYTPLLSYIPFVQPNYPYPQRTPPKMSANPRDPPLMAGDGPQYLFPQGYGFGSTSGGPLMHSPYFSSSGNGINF

Chain of drc12_human DRC12 (Q494R4 whole entry): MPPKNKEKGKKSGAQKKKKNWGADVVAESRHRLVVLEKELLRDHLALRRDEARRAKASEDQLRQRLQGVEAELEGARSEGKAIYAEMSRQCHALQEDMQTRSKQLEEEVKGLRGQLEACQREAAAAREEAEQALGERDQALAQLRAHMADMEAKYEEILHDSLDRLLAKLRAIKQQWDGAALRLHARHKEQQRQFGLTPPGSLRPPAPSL
Chain of reep6_human REEP6 (Q96HR9 whole entry): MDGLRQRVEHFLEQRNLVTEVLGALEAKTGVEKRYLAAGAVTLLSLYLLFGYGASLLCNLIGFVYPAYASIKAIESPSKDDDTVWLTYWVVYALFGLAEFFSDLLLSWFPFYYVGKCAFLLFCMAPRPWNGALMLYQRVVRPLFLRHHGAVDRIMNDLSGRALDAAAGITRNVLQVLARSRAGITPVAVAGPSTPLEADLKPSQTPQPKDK
Chain of zmat1_human ZMAT1 (Q5H9K5 whole entry): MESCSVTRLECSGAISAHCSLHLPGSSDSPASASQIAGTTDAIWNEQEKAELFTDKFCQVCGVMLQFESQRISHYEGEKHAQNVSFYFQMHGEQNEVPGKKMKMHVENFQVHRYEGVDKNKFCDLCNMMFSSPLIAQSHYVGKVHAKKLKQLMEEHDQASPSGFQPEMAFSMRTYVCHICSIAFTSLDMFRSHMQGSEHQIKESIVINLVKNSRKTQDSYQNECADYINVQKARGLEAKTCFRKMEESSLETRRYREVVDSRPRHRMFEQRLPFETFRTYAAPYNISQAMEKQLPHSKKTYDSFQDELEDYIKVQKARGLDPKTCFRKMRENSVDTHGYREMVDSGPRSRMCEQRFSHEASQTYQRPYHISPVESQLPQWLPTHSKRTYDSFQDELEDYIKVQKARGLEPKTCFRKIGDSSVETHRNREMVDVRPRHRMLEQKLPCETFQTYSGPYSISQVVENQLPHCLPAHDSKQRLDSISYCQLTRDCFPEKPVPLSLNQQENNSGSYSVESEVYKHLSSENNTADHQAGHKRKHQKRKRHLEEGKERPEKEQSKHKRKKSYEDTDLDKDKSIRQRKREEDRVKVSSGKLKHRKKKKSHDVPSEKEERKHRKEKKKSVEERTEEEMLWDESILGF
Chain of txlna_human TXLNA (P40222 whole entry): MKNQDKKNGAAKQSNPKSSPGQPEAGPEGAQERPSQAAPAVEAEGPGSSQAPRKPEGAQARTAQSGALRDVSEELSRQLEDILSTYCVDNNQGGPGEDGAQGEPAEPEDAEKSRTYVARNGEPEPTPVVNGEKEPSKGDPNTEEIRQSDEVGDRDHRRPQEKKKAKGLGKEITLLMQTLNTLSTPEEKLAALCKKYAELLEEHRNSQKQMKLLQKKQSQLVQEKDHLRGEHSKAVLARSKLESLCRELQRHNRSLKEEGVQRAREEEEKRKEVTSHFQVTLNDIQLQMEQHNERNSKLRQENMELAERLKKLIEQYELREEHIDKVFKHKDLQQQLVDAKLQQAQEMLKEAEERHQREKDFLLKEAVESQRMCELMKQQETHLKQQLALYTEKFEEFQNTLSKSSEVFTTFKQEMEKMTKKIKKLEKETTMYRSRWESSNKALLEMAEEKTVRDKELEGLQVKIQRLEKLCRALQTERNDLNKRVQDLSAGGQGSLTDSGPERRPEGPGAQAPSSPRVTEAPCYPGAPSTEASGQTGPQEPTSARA
Chain of ar6p1_human ARL6IP1 (Q15041 whole entry): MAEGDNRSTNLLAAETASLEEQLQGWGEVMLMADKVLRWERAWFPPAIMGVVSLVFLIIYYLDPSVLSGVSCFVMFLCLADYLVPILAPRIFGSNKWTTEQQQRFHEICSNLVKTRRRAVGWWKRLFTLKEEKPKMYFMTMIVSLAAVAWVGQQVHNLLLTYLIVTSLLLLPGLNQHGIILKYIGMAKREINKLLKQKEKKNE

Take “Golgi reassembly-stacking protein 2 (Homo sapiens) (from UniProt Q9H8Y8) L320R”: the “effect of a mutation on the interaction” value in the experiment with reep6_human REEP6 was “with no effect”; in the experiment with ei2ba_human EIF2B1, “with no effect”; in the experiment with dctd_human DCTD, “with no effect”; in the experiment with zmat1_human ZMAT1, “with no effect”; with acy3_human ACY3, “disrupting interaction strength”; with ar6p1_human ARL6IP1, “with no effect”. For the same substance, the “effect of a mutation on the interaction” value in the experiment with tle5_human TLE5 is “disrupting interaction strength”; with dcor_human ODC1, “disrupting interaction strength”; with phs_human PCBD1, “with no effect”; with prps1_human PRPS1, “with no effect”; in the experiment with ca094_human C1orf94, “with no effect”; with drc12_human DRC12 it was “with no effect”. The “effect of a mutation on the interaction” value with txlna_human TXLNA is “with no effect”.
